Experimental data as given in article PMC5677532 (Structure (London, England : 1993), 2017).
Values joined by “and” are separate entries in the source; they are usually repeats but may differ in a detail not shown here. Equal entries are not always repeated.

B1: Bsc4 EC1118, C-terminally hexahistidine-tagged (natural protein, S. cerevisiae (strain EC1118), UniProt P53841 2-121, looked up)
chain: SIVLRKSNKKNKNCITSKFYTIHIIKISTPVFRAPIAIGESPYVEWSCLQVVFRKDMVTKKTTFAQLITRLNHFLCQALKRRDSKTYILCRTAVFGAMTPFSPRKSHINNKLPMQPRKKK
B2: Bsc4 S288C, N-terminally hexahistidine-tagged (natural protein, S. cerevisiae (strain S288C), UniProt P53841 1-131, looked up)
chain: MSIVLRKSNKKNKNCITSKFYTIHIIKISTPVFRAPIAIGESPYVEWSCLQVVFRKDMVTKKTTFAQLITRLNHFLCQALKRRDSKTYILCRTAVFGAMTPFSPRKSHINNKLPMQPRKKKIVIIYVVRFH
B3: Bsc4 S288C, C-terminally hexahistidine-tagged (natural protein, S. cerevisiae (strain S288C), UniProt P53841 2-131, looked up)
chain: SIVLRKSNKKNKNCITSKFYTIHIIKISTPVFRAPIAIGESPYVEWSCLQVVFRKDMVTKKTTFAQLITRLNHFLCQALKRRDSKTYILCRTAVFGAMTPFSPRKSHINNKLPMQPRKKKIVIIYVVRFH

Assays:
[1] = molecular target: the molecule itself; test: SEC
[2] = molecular target: the molecule itself; test: native MS
[3] = molecular target: the molecule itself; test: native MS; remark: listed apart in the source
[4] = molecular target: the molecule itself; test: SEC; remark: listed apart in the source
[5] = molecular target: the molecule itself; test: SEC; remark: listed apart in the source
[6] = molecular target: the molecule itself; test: SEC; remark: listed apart in the source

| Protein | stoichiometry N [1] | stoichiometry N [2] | stoichiometry N [3] | stoichiometry N [4] | binding result [5] | stoichiometry N [6] |
| --- | --- | --- | --- | --- | --- | --- |
| B1 | 4 | 2 and 6 | 7 and 8 | ≥ 2 |  |  |
| B2 |  |  |  |  | binds |  |
| B3 |  |  |  | ≥ 2 |  | 2 |
